Laboratory results reported in patent US8304236B2, “Modified biotin-binding protein” (Japan Tobacco Inc., priority 2008, dated 2012).

Legend:
Salmon sperm DNA = assay: Non-specific binding to DNA (membrane-adsorbed DNA, biotinylated HRP, ECL); conditions: salmon sperm DNA 10 μg to 1 μg on membrane, 25 μg/mL protein
Protocol: Salmon sperm DNA diluted stepwise from 10 μg to 1 μg with 2×SSC buffer was denatured with an alkali and was adsorbed to Hybond N+membrane (Amersham Biosciences) using Bio-Dot SF (BIO-RAD). After blocking the membrane with 5×Denhardt's solution (0.1% BSA, 0.1% ficoll, 0.1% polyvinylpyrrolidone), the membrane was immersed in 25 μg/mL of low-pI TM2 or the wild-type TM2 at room temperature for 90 minutes. Then, the membrane was washed with a TUBS buffer (TBS buffer containing 0.05% Tween 20) at room temperature for 5 minutes three times. The membrane was blocked with a TBS buffer containing 3% skimmed milk and 0.1% Tween 20 for 1 hour. The membrane was subjected to a reaction with biotinylated horseradise peroxidase (Vector) diluted 5000 times with a TBS buffer containing 3% skimmed milk and 0.1% Tween 20 at room temperature for 1 hour. The membrane was washed with a TBS buffer containing 0.1% Tween 20 again and was then shaken in a solution that is a mixture of reagent 1 and reagent 2 of ECL (Amasham) in the same volumes, followed by detection of the luminol reaction with Las-3000 (FUJIFILM).
The non-specific binding of HALU TM2 to DNA was analyzed by the process in paragraph 1-11) of Example 1.

human serum protein [1] = assay: Non-specific adsorption of low-pI TM2 to human serum protein-immobilized magnetic beads; assay type: binding
Protocol: In this embodiment, non-specific binding to human serum was investigated as non-specific adsorption of low-pI TM2 to serum protein-immobilized magnetic beads. Specifically, in order to investigate the non-specific binding of low-pI TM2, the amount of low-pI TM2 adsorbed to magnetic beads to which human serum protein was covalently bonded was measured. TM2 K26A, TM2 K73Q, TM2 R104E, TM2 K141E, and TM2 R104EK141E, which were highly expressed in Escherichia coli, were used as the low-pI TM2 to be investigated.
Human serum protein and magnetic beads were bound to each other as follows. Magnetic beads having surfaces coated with carboxyl groups (Dynabeads M-270 Carboxylic Acid, Dynal, 210 μL) were washed with 0.01 N sodium hydroxide (210 μL) for 10 minutes and then with ultrapure water (210 μL) for 10 minutes three times. To the washed magnetic beads, 1-ethyl-3-(3-dimethylaminopropyl)carbodiimide hydrochloride (EDC, PIERCE) dissolved in cooled ultrapure water was added into a final concentration of 0.2 M, and the mixture was shaken at room temperature for 30 minutes. Then, the magnetic beads were washed with cooled ultrapure water (210 μL) and then with 50 mM MES buffer (pH 5.0, 210 μL).
To the magnetic beads, 1 mg/mL human serum protein (CHEMICON, 210 μL) dialyzed with 50 mM MES buffer (pH 5.0) was added. The mixture was shaken at room temperature for 30 minutes to covalently bind the human serum protein to the magnetic beads. The magnetic beads were collected with a magnet to remove the supernatant. The unreacted active groups on the beads were eliminated with 50 mM tris buffer (pH 7.0, 210 μL), and then the magnetic beads were blocked with a PBS buffer (420 μL) containing 0.5% BSA and 0.1% Tween 20. The magnetic beads were suspended in a PBS buffer (210 μL) to obtain human serum protein-immobilized magnetic beads.
The magnetic beads (7 μL) and 0.56 μg/mL of each low-pI TM2 (100 μL) were mixed for reaction at room temperature for 1 hour. The magnetic beads were collected with a magnetic, and the supernatant was removed. After washing with 20 mM potassium phosphate buffer (500 μL) containing 500 mM sodium chloride, the magnetic beads were mixed with 20 μL of 2×SDS sample buffer (250 mM Tris-HCl, pH 6.8, 20% 2-mercaptoethanol, 20% SDS, 20% glycerol), followed by heating at 95° C. for 20 minutes to dissociate the low-pI TM2 from the magnetic beads.
This sample was subjected to SDS-PAGE and then western blotting analysis to determine the amount of the low-pI TM2. Anti-tamavidin 2 rabbit antibody and alkaline phosphatase-labeled anti-rabbit IgG goat antibody were used as the primary antibody and the secondary antibody, respectively. The bands were detected with Alkaline Phosphatase Substrate Kit II <VECTOR Black> (VECTRO) and were quantified with Las-3000 (FUJIFILM).

[2] = Isoelectric focusing electrophoresis (pI observed); assay type: physicochemical; conditions: pH 3 to 10 gel
Protocol: The isoelectric point of each low-pI TM2 was measured by isoelectric focusing electrophoresis using an XCell SureLock Mini-Cell (Invitrogen). In accordance with the instruction, each low-pI TM2 (500 ng) and an IEF sample buffer (pH 3 to 10 (2×), Invitrogen) were mixed and were added to a polyacrylamide gel (pH 3 to 10, IEF Gel, Invitrogen) at a pH ranging from 3 to 10, followed by electrophoresis at a variable voltage of 100 V for 1 hour, 200 V for 1 hour, and 500 V for 45 minutes in this order.
After the electrophoresis, the gel was shaken in a blotting buffer (0.7% acetic acid) for 10 minutes and then was transferred onto a PVDF membrane at 10 V for 1 hour using an XCell ll Blot Module (Invitrogen). The PVDF membrane was subjected to reaction with anti-TM2 rabbit antibody (PCT/W2006/326260) serving as a primary antibody and with alkaline phosphate-labeled anti-rabbit IgG antibody (BIO-RAD) serving as a secondary antibody, followed by detection of bands with Alkaline Phosphatase Substrate Kit II
The isoelectric point of the high-affinity TM2 was measured by isoelectric focusing electrophoresis using an XCell SureLock Mini-Cell (Invitrogen). […] The electric point of TM2 D40N having replacement of the […] amino acid was higher than that of the wild type TM2 also in the isoelectric focusing electrophoresis.
The isoelectric point of HALU TM2 was measured by isoelectric focusing electrophoresis using an XCell SureLock Mini-Cell (Invitrogen). In accordance with the instruction, bands of each HALU TM2 (4 μg) were detected by CBB staining. […] The observed isoelectric point of TM2 D40N was 9.7, and was reduced to 8.9 after introduction of mutation of R104E and was reduced to 7.3 to 7.5 after further introduction of mutation of K141E.

human serum protein [3] = assay: Non-specific adsorption of serum protein to HALU TM2-immobilized magnetic beads; assay type: binding; conditions: human serum diluted 800 times, anti-human IgG detection
Protocol: In this Example, non-specific adsorption of serum protein to HALU TM2-immobilized magnetic beads was investigated.
TM2 D40NR104E and TM2 D40NR104EK141E were bonded covalently to magnetic beads (Dynabeads M-270 Carboxylic Acid, Dynal) by the process described in paragraph 1-9) of Example 1, and the amount of human serum protein adsorbed to the beads was measured. The amount of each HALU TM2 immobilized to the magnetic beads was adjusted to 10 μg/100 μL beads. Human serum (CHEMICON) was diluted 800 times with a PBS buffer, and the HALU TM2-immobilized magnetic beads (50 μL) to which a certain amount of protein was immobilized were added to the diluted human serum, followed by mixing by turning the tube containing the beads upside down at room temperature for 15 minutes. The magnetic beads were washed with a PBS buffer containing 0.1% Tween 20 (PBST, 500 μL) four times and were then subjected to antigen-antibody reaction at room temperature for 15 minutes with HRP-labeled anti-human IgG mouse antibody (100 μL) diluted 5000 times with PBST containing 0.5% BSA. Subsequently, the beads were washed with PBST (500 μL) five times, followed by color development with 1-Step Ultra TMB-ELISA (100 μL). After termination of the color development with 2M sulfuric acid (100 μL), the magnetic beads were collected with a magnet. The absorbance at 450 nm of the supernatant was measured with an Infinite 200 microplate reader.

[4] = Biotin-binding test (Biacore 3000, biotin-LC-BSA immobilized); conditions: Biotin-BSA (22.4 Å)
Protocol: High-purity BSA (Sigma, 2 mg) and NHS-LC-biotin (Pierce, 1 mg) were dissolved in 50 mM sodium borate (pH 8.0, 1 mL) and were incubated at 4° C. for 2 hours. The solution was put into a dialysis tube (MWCO 6-8,000) and was dialyzed with 50 mM sodium carbonate (pH 6.7) at 4° C. overnight. The resulting biotin-LC-BSA conjugate (MW: 67 kDa, 30 μM) was used as a ligand for a Biacore (registered trademark) biosensor.
Biotin-LC-BSA and BSA serving as a negative control were immobilized on CM5 sensor chips by amine coupling method. The amount for immobilization was adjusted to about 200 RU. The chips to which BSA was immobilized were disposed in flow cells 1 and 3, while the chips to which biotin-LC-BSA was immobilized were disposed in flow cells 2 and 4.
Accordingly, seven step measurement (3.125, 6.25, […], 25, 50, 100, and 200 nM) was conducted from the lowest concentration, without recycling steps. The data of BSA as reference was deducted from the data of BSA-LC-biotin. The measurement was performed at 25° C. The resulting sensorgrams were subjected to reaction kinetics analysis using analysis software BIAevaluation ver. 4.1 with a 1:1 binding model to calculate the binding rate constant (ka) and the dissociation rate constant (kd). The dissociation constant (KD) was determined from kd/ka. In the case where no recycling step is employed, the Rmax (maximum amount of binding analyte) decreases at each measurement. Accordingly, in the analysis, the Rmax was calculated by conducting local fitting for each concentration, and only the data of analyte concentrations that were approximated to the 1:1 binding model was employed.
TM2 and HALU TM2 used as analytes were prepared by purification with 2-iminobiotin agarose in accordance with a common method and dialysis with 20MM KPi (pH 7) overnight. The analytes were each adjusted to about 50 μg/mL in 10 mM acetate buffer (pH 5, Biacore).
The immobilization of the ligand and measurement and analysis of specific interaction with the analytes were conducted as in paragraph 2-7-2).

[5] = Heat stability of protein structure (soluble protein after heating, SDS-PAGE); assay type: physicochemical; conditions: heated for 20 minutes
Protocol: 3-8) Heat Stability of HALU TM2 Protein Structure Each of 0.2 μg/μL TM2 mutant solutions (10 μL (2 μg)) was heated at room temperature, 50, 60, 70, 80, 90, or 99° C. for 20 minutes. Then, the solution was centrifuged at 15000 rpm for 10 minutes, and the soluble protein in the supernatant was suspended in the same volume of 2×SDS sample buffer (250 mM Tris-HCl, pH 6.8, 20% 2-mercaptoethanol, 20% SDS, 20% glycerol). The suspension was heated at 95° C. for 10 minutes, followed by SDS-PAGE. The protein bands were detected by CBB staining A standard curve was prepared using a quantitative marker (LMW ELECTROPHORESIS CALIBRATION KIT; Pharmacia Biotech) with Las-3000 (FUJIFILM) to quantify the protein bands.

Molecule | Non-specific binding of DNA (Salmon sperm DNA) | decrease of adsorption to human serum protein compared to the wild type TM2 (human serum protein [1]; FIG. 1) [%] | non-specific binding to human serum protein compared to TM2 (human serum protein [1]; FIG. 1) | Non-specific binding of serum protein (%) (human serum protein [1]; wild type TM2 = 100) | pI observed [2] | Non-specific binding to serum protein (A450) (human serum protein [3]) | Non-specific binding to serum protein (A450) (human serum protein [3]; listed as D40NR104E) | ka [4] | kd ([4]; values in parentheses) | Thermal stability (temp. at which 50% of protein was lost) [5] [°C]
TM2 R104EK141E: TM2 mutant, arginine 104 and lysine 141 each replaced with glutamic acid; SEQ ID NO: 16 (protein, Synthetic TM2 R104EK141E) MSDVQSSLTGTWYNELNSKMELTANKDGTLTGKYLSKVGDVYVPYPLSGRYNLQPPAGQGVALGWAVSWENSKIHSATTWSGQFFSESSPVILTQWLLSSSTAEGDVWESTLVGNDSFTKTAPTEQQIAHAQLHCRAPRLE | lower than the detection limit | 70 | significantly low | 25 | 6.2 | – | – | – | – | –
TM2 D40NR104E: TM2 mutant having mutation of D40N and R104E; SEQ ID NO: 22 (protein, Synthetic TM2 D40NR104E) MSDVQSSLTGTWYNELNSKMELTANKDGTLTGKYLSKVGNVYVPYPLSGRYNLQPPAGQGVALGWAVSWENSKIHSATTWSGQFFSESSPVILTQWLLSSSTAEGDVWESTLVGNDSFTKTAPTEQQIAHAQLHCRAPRLK | – | – | – | – | 8.9 | low | 0.56 | 1.4 × 10^6 | (2.9 × 10^−9) | 78
